Test results from the Immune Epitope Database (IEDB).

Experiments:
Experiment in all cases: IEDB peptide-MHC binding, purified MHC/competitive/radioactivity; ≥ and ≤ were set here for values at or beyond the usual limits of such assays
HLA-A*02:01 = target: HLA-A*02:01
HLA-A*02:02 = target: HLA-A*02:02
HLA-A*02:03 = target: HLA-A*02:03
HLA-A*02:06 = target: HLA-A*02:06
HLA-A*68:02 = target: HLA-A*68:02
[1] = source organism: Vaccinia virus WR
[2] = source organism: Hepacivirus hominis
[3] = source organism: Influenza A virus
[4] = source organism: Mammarenavirus brazilense

Row | Sequence | IC50 (HLA-A*02:01; [1]) | IC50 (HLA-A*02:02; [1]) | IC50 (HLA-A*02:03; [1]) | IC50 (HLA-A*02:06; [1]) | IC50 (HLA-A*68:02; [1]) | other results
1 | VMYAFTTPL | 0.87 nM | 0.57 nM | 1.3 nM | 5.7 nM | 112 nM | 
2 | FISPASISSV | 1.4 nM | 3 nM | 0.11 nM | 2 nM | 17 nM | 
3 | LMIFISSFL | 0.32 nM | 0.65 nM | 0.13 nM | 18 nM | 35 nM | 
4 | TLNTLITLI | 51 nM | 0.99 nM | 0.6 nM | 941 nM | 472 nM | 
5 | KLIEYSDFA |  |  |  |  |  | IC50 (HLA-A*02:01; source organism: SARS-CoV1): 0.54 nM; IC50 (HLA-A*02:02; source organism: SARS-CoV1): 0.095 nM; IC50 (HLA-A*02:03; source organism: SARS-CoV1): 0.53 nM; IC50 (HLA-A*02:06; source organism: SARS-CoV1): 0.71 nM; IC50 (HLA-A*68:02; source organism: SARS-CoV1): 10 nM
6 | LLSCISVPV |  |  |  |  |  | IC50 (HLA-A*02:01; [2]): 2.5 nM; IC50 (HLA-A*02:02; [2]): 1.4 nM; IC50 (HLA-A*02:03; [2]): 4.7 nM; IC50 (HLA-A*02:06; [2]): 17 nM; IC50 (HLA-A*68:02; [2]): 15 nM
7 | FVDEFYAYL |  |  |  |  |  | IC50 (HLA-A*02:01; source organism: SARS-CoV1): 0.22 nM; IC50 (HLA-A*02:02; source organism: SARS-CoV1): 0.089 nM; IC50 (HLA-A*02:03; source organism: SARS-CoV1): 2.6 nM; IC50 (HLA-A*02:06; source organism: SARS-CoV1): 0.36 nM; IC50 (HLA-A*68:02; source organism: SARS-CoV1): 38 nM
8 | SAFNDDGIYI | 35 nM | 35 nM | 68 nM | 41 nM | 6.6 nM | 
9 | SCLENFRAYV |  |  |  |  |  | IC50 (HLA-A*02:01; [3]): 20 nM; IC50 (HLA-A*02:02; [3]): 90 nM; IC50 (HLA-A*02:03; [3]): 55 nM; IC50 (HLA-A*02:06; [3]): 162 nM; IC50 (HLA-A*68:02; [3]): 224 nM
10 | SVMNFIPII | 1.7 nM | 13 nM | 6.3 nM | 2.8 nM | 58 nM | 
11 | RVTTELNIV | 818 nM | 2460 nM | 116 nM | 46 nM | 481 nM | 
12 | IVNCLSLSNL | 1930 nM | 338 nM | 128 nM | 1280 nM | 3590 nM | 
13 | IITILQDIV | 109 nM | 827 nM | 666 nM | 658 nM | 1070 nM | 
14 | AIMTRCLAV |  |  |  |  |  | IC50 (HLA-A*02:01; source organism: SARS-CoV1): 5.9 nM; IC50 (HLA-A*02:02; source organism: SARS-CoV1): 51 nM; IC50 (HLA-A*02:03; source organism: SARS-CoV1): 15 nM; IC50 (HLA-A*02:06; source organism: SARS-CoV1): 27 nM; IC50 (HLA-A*68:02; source organism: SARS-CoV1): 1300 nM
15 | FIPIIYSKA | 163 nM | 0.56 nM | 1.8 nM | 95 nM | 78 nM | 
16 | AISYCRAFI | 169 nM | 17 nM | 149 nM | 146 nM | 98 nM | 
17 | IVYGRSNAI | 228 nM | 15 nM | 16 nM | 30 nM | 6.1 nM | 
18 | GLSDRVVFV |  |  |  |  |  | IC50 (HLA-A*02:01; source organism: SARS-CoV1): 3.1 nM; IC50 (HLA-A*02:02; source organism: SARS-CoV1): 1 nM; IC50 (HLA-A*02:03; source organism: SARS-CoV1): 1.1 nM; IC50 (HLA-A*02:06; source organism: SARS-CoV1): 69 nM; IC50 (HLA-A*68:02; source organism: SARS-CoV1): 1170 nM

Row | Sequence | IC50 (HLA-A*02:01; [1]) | IC50 (HLA-A*02:02; [1]) | IC50 (HLA-A*02:03; [1]) | IC50 (HLA-A*02:06; [1]) | IC50 (HLA-A*68:02; [1]) | other results
19 | TVGMSIVCIV | 526 nM | 528 nM | 468 nM | 200 nM | 220 nM | 
20 | RAAIDRQVSV | 554 nM | 626 nM | 41 nM | 212 nM | 54 nM | 
21 | CVDHPFIYV | 546 nM | 300 nM | 1410 nM | 148 nM | 5.1 nM | 
22 | NVMGMIGV |  |  |  |  |  | IC50 (HLA-A*02:01; [3]): 1460 nM; IC50 (HLA-A*02:02; [3]): 1980 nM; IC50 (HLA-A*02:03; [3]): 512 nM; IC50 (HLA-A*02:06; [3]): 1250 nM; IC50 (HLA-A*68:02; [3]): 98 nM
23 | FMSHVKSVT | 873 nM | 508 nM | 181 nM | 4320 nM | 2600 nM | 
24 | IVCIVAAVII | 1960 nM | 1460 nM | 1590 nM | 3550 nM | 2980 nM | 
25 | LLPDALLFTL |  |  |  |  |  | IC50 (HLA-A*02:01; [4]): 77 nM; IC50 (HLA-A*02:02; [4]): 4.7 nM; IC50 (HLA-A*02:03; [4]): 733 nM; IC50 (HLA-A*02:06; [4]): 79 nM; IC50 (HLA-A*68:02; [4]): 232 nM
26 | ILSCIFAFI | 1.8 nM | 0.79 nM | 3.1 nM | 8.8 nM | 1.3 nM | 
27 | RAFIYSIMET | 659 nM | 81 nM | 70 nM | 578 nM | 852 nM | 
28 | YAAEMVEYL | 32 nM | 0.52 nM | 2.1 nM | 12 nM | 13 nM | 
29 | RLLAPITAYA |  |  |  |  |  | IC50 (HLA-A*02:01; [2]): 29 nM; IC50 (HLA-A*02:02; [2]): 5.2 nM; IC50 (HLA-A*02:03; [2]): 25 nM; IC50 (HLA-A*02:06; [2]): 103 nM; IC50 (HLA-A*68:02; [2]): 94 nM
30 | IVAAVIIMAI | 4430 nM | 727 nM | 2610 nM | 4510 nM | 95 nM | 
31 | LATLNTLITL | 848 nM | 139 nM | 338 nM | 323 nM | 1040 nM | 
32 | TMSIYIAVA | 136 nM | 81 nM | 41 nM | 786 nM | 300 nM | 
33 | FVMCLEAKT | 3840 nM | 609 nM | 1940 nM | 979 nM | 1510 nM | 
34 | IVVPVIDRL | 241 nM | 144 nM | 226 nM | 31 nM | 35 nM | 
35 | SVDVDIYDAV | 153 nM | 0.43 nM | 9.2 nM | 3.3 nM | 0.25 nM | 
